Results published in patent publication US20150133630A1 (UNIVERSITY OF TOKYO, published 2015).
Bridge positions count the residues as written; N and C are the ends. Square brackets hold non-standard residues; d marks the D form. Tyr(3-NO2) = N[C@@H](Cc1ccc(O)c([N+](=O)[O-])c1)C(=O)O; Arg(NO2) = N=C(NCCC[C@H](N)C(=O)O)N[N+](=O)[O-]

Assays:
[1] = molecular target: T1, human soluble FcRn (human, UniProt P55899 24-297; P61769 21-119, limits assumed, chemically biotinated with NHS-biotin in the mRNA display assays; amine-coupled to the sensor chip in the Biacore assay); experiment: SPR, Biacore T100, FcRn amine-coupled to chip, peptide as analyte, phosphate buffer pH 7.4
T1 construct: also called neonatal Fc receptor
Description: (§1) In order to find whether a peptide alone interacts with FcRn in a pH dependent manner, the peptide 2G01D not having SGSGS on the C-terminal side of 8D-01 and amidated at the C-terminal was synthesized on a solid phase and a dissociation constant Kd binding constant was measured using Biacore T100 (GE Healthcare). FcRn was immobilized onto a sensor chip by an amine coupling method. The following is the peptide 2G01D:
(§2) On the other hand, a solid-phase synthesized peptide 2G01D was added as an analyte to a phosphate buffer having a pH 6.0 or 7.4 and a dissociation constant was measured.

[2] = molecular target: T1, human soluble FcRn; experiment: SPR, Biacore T100, KD at pH 7.4 against KD at pH 6.0
Description: as §1, §2

[3] = molecular target: T1, human soluble FcRn; experiment: SPR, Biacore T100, FcRn amine-coupled to chip, peptide as analyte, phosphate buffer pH 6.0
Description: as §1, §2

Kd [1]: 293 nM | koff [1]: 0.00955 s⁻¹ | kon [1]: 32600 M⁻¹ s⁻¹ | fold change in dissociation constant between pH 7.4 and pH 6.0 [2]: ~70 times | Kd [3]: 4.26 nM | koff [3]: 0.00394 s⁻¹ | kon [3]: 925000 M⁻¹ s⁻¹
B1: peptide 2G01D (peptide)
peptide: {CH2CO}-[dNty]F[Tyr(3-NO2)]LYN[Arg(NO2)]GDPL[Tyr(3-NO2)]LCG-NH2
modifications: thioether N-14; not fully specified
notes: also called solid-phase synthesized peptide 2G01D
